For series [1], the system named is purified plasma fibronectin. Briefly: Fibronectin aggregation assay (O.D.600). The format is biochemical, human. The following applies: for induction of plasma fibronectin aggregation (in words): 1 μM purified plasma fibronectin, absorbance at 600 nm. Here is the method: BBK32, FnbpA peptide D3, Anastellin, and purified plasma fibronectin were centrifuged at 14,000 rpm for 15 minutes and then filtered through 0.22 μm PES syringe filters (Nalgene, Rochester, N.Y.). Following filtration, BBK32, FnbpA peptide D3, and Anastellin were titrated into 1 μM purified plasma fibronectin in TBS. After the addition of each aliquot, the fibronectin/protein mixture was carefully mixed five times with a 200 μl pipette and optical density at 600 nm was measured using a BioPhotometer (Eppendorf, New York, N.Y.) after 10 seconds.
Sequence of purified plasma fibronectin (P02751 32-1265 limits assumed): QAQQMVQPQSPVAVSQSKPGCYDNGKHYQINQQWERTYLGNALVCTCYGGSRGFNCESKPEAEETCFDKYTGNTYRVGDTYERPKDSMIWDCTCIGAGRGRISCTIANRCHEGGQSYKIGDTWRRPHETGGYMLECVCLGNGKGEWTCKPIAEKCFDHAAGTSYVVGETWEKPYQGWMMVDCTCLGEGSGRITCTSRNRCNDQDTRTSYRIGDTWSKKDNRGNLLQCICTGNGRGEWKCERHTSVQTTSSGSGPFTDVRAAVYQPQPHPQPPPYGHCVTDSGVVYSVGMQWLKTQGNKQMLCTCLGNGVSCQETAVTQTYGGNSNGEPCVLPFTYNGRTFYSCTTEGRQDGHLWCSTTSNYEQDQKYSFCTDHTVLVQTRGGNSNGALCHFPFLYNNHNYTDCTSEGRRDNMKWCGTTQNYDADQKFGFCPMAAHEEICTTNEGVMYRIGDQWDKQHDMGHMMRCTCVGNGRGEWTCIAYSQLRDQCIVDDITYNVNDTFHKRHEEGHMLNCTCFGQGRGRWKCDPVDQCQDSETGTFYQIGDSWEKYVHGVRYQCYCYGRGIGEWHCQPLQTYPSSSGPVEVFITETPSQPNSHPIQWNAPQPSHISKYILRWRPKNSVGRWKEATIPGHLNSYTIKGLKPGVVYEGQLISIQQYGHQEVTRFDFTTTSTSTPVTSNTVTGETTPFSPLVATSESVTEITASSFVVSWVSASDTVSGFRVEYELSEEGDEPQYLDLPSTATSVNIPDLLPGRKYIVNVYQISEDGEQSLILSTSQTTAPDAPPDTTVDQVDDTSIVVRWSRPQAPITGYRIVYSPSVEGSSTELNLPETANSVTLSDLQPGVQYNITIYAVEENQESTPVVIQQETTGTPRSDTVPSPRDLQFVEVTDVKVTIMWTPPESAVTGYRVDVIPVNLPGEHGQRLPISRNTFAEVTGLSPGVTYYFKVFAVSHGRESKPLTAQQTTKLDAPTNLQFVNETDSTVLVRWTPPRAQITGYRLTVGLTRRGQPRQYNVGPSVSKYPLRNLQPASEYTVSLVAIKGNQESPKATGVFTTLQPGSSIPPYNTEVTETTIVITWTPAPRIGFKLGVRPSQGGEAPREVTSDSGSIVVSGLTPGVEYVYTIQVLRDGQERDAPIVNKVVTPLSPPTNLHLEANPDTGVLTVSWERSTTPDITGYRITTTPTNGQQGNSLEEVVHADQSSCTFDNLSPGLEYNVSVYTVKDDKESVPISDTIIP

Series [2] has as its system human umbilical vein endothelial cells (HUVECs). Briefly: Endothelial cell proliferation assay. The format is cell-based. Conditions: 72 hours; for effect on proliferation of endothelial cells (in words): cell counts. As for the experimental part: Cells were seeded onto tissue culture plates in full media and allowed to adhere for two hours. […] Cells were then incubated for 72 hours at 37° C., 5% CO2. After 72 hours, wells were washed, trypsinized, and counted (three counts/well, three wells/dose) using a hemacytometer.
1×10^4 human umbilical vein endothelial cells (HUVECs) (Cambrex) were seeded into Costar 24 well tissue culture plates in endothelial growth media-2 (EGM-2) (Cambrex) and allowed to adhere for two hours. After two hours, BBK32, Anastellin, and FnbpA peptide D3 were added in a dose dependent manner (triplicate) to the wells suspended in EGM-2. Cells were allowed to incubate for 72 hours at 37° C., 5% CO2. After 72 hours, wells were washed with PBS and cells were trypsinized with 0.5% trypsin/EDTA (Cambrex). Trypsinized cells were collected in microcentrifuge tubes and trypsin/EDTA was neutralized with EGM-2. Cells were counted from each well (three counts/well, three wells/dose) using a hemacytometer.

The subject of series [3] is fibronectin matrix of normal human dermal fibroblasts (NHDFs). The series can be described thus: Effects on fibronectin matrix assembled by normal human dermal fibroblasts (immunostaining). It counts as cell-based. Conditions: 5 μM, 20 hours. As for the experimental part:
Cells were treated for 20 hours and then fixed. […] Treated cells were incubated for 20 hours and probed with Alexa Fluor 488-anti-fibronectin, monoclonal antibody IST-1, and monoclonal antibody IST-9. Images were taken using LSM 510 Confocal Microscope. Bar=10 μm.
4×10^4 adult normal human dermal fibroblasts (NHDFs) (Cambrex, East Rutherford, N.J.) were seeded onto glass coverslips in 24 well Costar tissue culture plates in Fibroblast growth media-2 (FGM-2) (Cambrex). Cells were allowed to grow for 48 hours and then BBK32, Anastellin, or FnbpA peptide D3 was added to a final concentration of 5 μM in FGM-2. Treated cells were incubated for 20 hours at 37° C., 5% CO2. After incubation, cells were washed with Dulbecco's PBS (DPBS) (Gibco, Invitrogen, Carlsbad, Calif.) and fixed with 2% paraformaldehyde for 30 minutes at room temperature. Following washing with DPBS, cells were blocked with 1% BSA for one hour at room temperature. Cells were then probed with Alexa Fluor 488-anti-fibronectin, Texas Red anti-His, monoclonal antibodies IST-1 (plasma and cellular fibronectin) and IST-9 (cellular fibronectin) (abcam, Cambridge, UK) or combinations of antibodies at a dilution of 1:3000 for one hour at room temperature. Following extensive washing with DPBS, appropriate fluorescently labeled secondary antibodies (Alexa Fluor 594-goat anti-mouse) (Invitrogen, Carlsbad, Calif.) were added at a dilution of 1:3000 and incubated for one hour at room temperature. After incubation, cells were washed extensively with DPBS and coverslips were mounted using Gel/Mount (biømeda, Foster City, Calif.) onto glass slides and images were taken using a LSM 510 Confocal Microscope (Zeiss).

Series [4] concerns fibronectin matrix assembly. Conditions: cited from earlier work.
In the next series the test system is plasma fibronectin. Briefly: Proteolytic (thermolysin) digestion of fibronectin aggregates. The format is biochemical, human. Conditions: 20 μM inducer, 1 μM plasma fibronectin, 5 μg/ml thermolysin 2 hours, SDS-PAGE. Here is the method: The sequences obtained, SSPVVID (SEQ ID No. 12), AVEENQE (SEQ ID No. 13), and ITETIP (SEQ ID No. 14), were located to the end of ^13F3, middle of ^3F3, and the start of ^1F3, respectively for both BBK32/fibronectin and Anastellin/fibronectin. Pre-stained protein standard (New England Biolabs).
Sequence of plasma fibronectin (P02751 32-1265 limits assumed): as above
BBK32, Anastellin, and plasma fibronectin were dialyzed into thermolysin digestion buffer (25 mM Tris, 0.5 mM EDTA, pH 8, 50 mM NaCl, and 2.5 mM CaCl2). 20 μM BBK32 or 20 μM Anastellin was added to 1 μM plasma fibronectin. Solutions were mixed and aggregates were allowed to form for one hour at room temperature. After one hour incubation, 5 μg/ml thermolysin (Sigma) was added to the BBK32-sFn, the Anastellin-sFn, and to plasma fibronectin. The solutions were incubated at room temperature with end-over-end mixing for 2 hours. Digestion was stopped after two hours with the addition of EDTA to a final concentration of 5 mM. Samples were then run on 4-20% gradient SDS-PAGE gels under non-reducing conditions. […] Excess stain was removed with 40% methanol and bands that were present in BBK32-sFn and Anastellin-sFn, but not in plasma fibronectin lanes, were excised and analyzed by N-terminal sequencing using Edman degradation (Protein Sequencing Division, Tufts University Core Facility, Boston, Mass.).

In a further series the target is T1, ^1F3 fibronectin module (Homo sapiens, UniProt P02751).
T1 construct: His-tag (N); made in house
T1 sequence (P02751 608-700): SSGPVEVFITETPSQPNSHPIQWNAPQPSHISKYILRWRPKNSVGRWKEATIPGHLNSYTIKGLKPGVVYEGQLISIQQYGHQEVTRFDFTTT
The series can be described thus: ELISA-type binding assay, immobilized 1F3 module. As for the experimental part: Binding to ^1F3 (FIG. 1A), ^1-2F3 (FIG. 1B), and ^3F3 (FIG. 1C) was assessed using ELISA-type assays. F3 modules were immobilized in microtiter wells and blocked with Ovalbumin.
Binding of BBK32 to F3 modules was tested by coating 1 μg of recombinant ^1F3, ^1-2F3, and ^3F3 modules in 50 μl of 50 mM Tris-HCl, 150 mM NaCl, pH 7.5 (TBS) per well in Immulon 4HBX microtiter plates (Dynatech Laboratories, Chantilly, Va.) and incubating overnight at 4° C. The next day, the wells were washed with 200 μl TBS, 0.05% Tween 20, pH 7.4 (TBST) and blocked with 200 μl TBST containing 2% ovalbumin (Sigma, St. Louis, Mo.) for one hour at room temperature. […] Plates were incubated for one hour at room temperature. After washing with TBST, primary antibodies (rabbit IgG anti-BBK32 or rabbit IgG anti-FnbpA) were added to each well at a 0.48 μg/ml. Plates were incubated for one hour at room temperature and then were washed again with TBST.
Following washing, a 1:3000 dilution of HRP-conjugated goat-anti-rabbit antibodies (BioRad, Hercules, Calif.) was added to each well. Plates were incubated for one hour at room temperature and then washed with TBST. […] Absorbance was measured at 450 nm using a Thermo Max microplate reader (Molecular Devices, Sunnyvale, Calif.). Apparent Kds were calculated by assessing maximal half-binding (Y=Bmax·X/(Kd+X)).
On the technique in general: In an ELISA, binding on a coated surface is turned into a signal by an enzyme label.

Series [5] can be described thus: Stability of recombinant protein. The format is physicochemical.
Another series deals with endothelial cells. Briefly: Annexin V apoptosis assay on endothelial cells. The following applies: not shown. The format is cell-based.
The subject of series [6] is fibronectin 56 kDa and 45 kDa gelatin binding fragments. The series can be described thus: Far Western blot of thermolysin digest of fibronectin. Conditions: 56 kDa fragment vs 45 kDa gelatin binding fragment. An excerpt: BBK32 binds to the ^1F1-^5F1 N-terminal segment of fibronectin by the tandem beta-zipper mechanism (6-7).

On to “Anastellin: Recombinant form of the C-terminal two-thirds of fibronectin ^1F3 with C-terminal His-tag; known inducer of superfibronectin”, for which the “induction of plasma fibronectin aggregation (in words)” value (shortened to “induction”) in series [1] is “induced fibronectin aggregation”. In series [2], the “effect on proliferation of endothelial cells (in words)” value (shortened to “effect on proliferation”) is on record as “concentration dependent manner”. Besides, in series [3], the “co-localization with fibronectin in the extracellular matrix” value (“co-localization with fibronectin” for short) is “co-localize with fibronectin” and the “immunostaining with monoclonal antibody IST 9 (EDA epitope of cellular fibronectin)” value (“immunostaining” for short) was “markedly reduced immunostaining with IST 9”. For the same molecule, the “concentration at which matrix assembly is blocked” value in [4] (high concentrations, 16 hour incubation causes disappearance of pre-existing matrix) is “above 20 μM”. For the same molecule, in series [4] (low concentrations), the “concentration at which fibronectin matrix assembly is promoted” value is listed as “less than 5 μM”. Also, in the series with plasma fibronectin, the “thermolysin fragment profile of induced fibronectin aggregates” value is “very similar fragment profiles”.
As to “FnbpA peptide D3: S. aureus fibronectin-binding peptide D3 of MSCRAMM FnbpA, synthesized and purified by HPLC; used as control (GFNKHTEIIEEDTNKDKPSYQFGGHNSVDFEEDTLPK)”, in series [1], the “induction” value is recorded as “not the D3 protein induced fibronectin aggregation”. For the same molecule, the “effect on proliferation” value in [2] is “only marginally affected the proliferation of cells”. Moreover, the “binding to the ^1F3 module (in words)” value with ^1F3 fibronectin module is reported as “did not to bind the ^1F3 module”. In [3], the “co-localization with fibronectin” value is “co-localize with fibronectin” and the “immunostaining” value is reported as “no different from the staining observed for the no treatment control”.

B1: BBK32(21-354): Recombinant intact BBK32 protein, residues 21-354, including the C-terminal globular domain (SEQ ID NO: 5) (protein)
chain: DLFIRYEMKEESPGLFDKGNSILETSEESIKKPIKKPMNKKGKGKIARKKGKSKVSRKEPYIHSLKRDSANKSNFLQKNVILEEESLKTELLKEQSETRKEKIQKQQDEYKGMTQGSLNSLSGESGELEEPIESNEIDLTIDSDLRPKSSLQGIAGSNSISYTDEIEEEDYDQYYLDEYDEEDEEEIRLSNRYQSYLEGVKYNVDSAIQTITKIYNTYTLFSTKLTQMYSTRLDNFAKAKAKEEAAKFTKEDLEKNFKTLLNYIQVSVKTAANFVYINDTHAKRKLENIEAEIKTLIAKKIEQSNLYEAYKAIVTSILLMRDSLKEVQGIIDKNGVWY
modifications: recombinant peptide from residues 21-354 of BBK32
As for B1, the “stability of the recombinant protein” value in series [5] was “unstable and susceptible to degradation”. Besides, the “induction” value in series [1] is listed as “induced aggregation of fibronectin at lower concentrations than BBK32(21-205)”.

B2: BBK32(21-205): Recombinant fibronectin-binding segment, residues 21-205, of Borrelia burgdorferi lipoprotein BBK32 (SEQ ID NO: 6) (protein)
chain: DLFIRYEMKEESPGLFDKGNSILETSEESIKKPIKKPMNKKGKGKIARKKGKSKVSRKEPYIHSLKRDSANKSNFLQKNVILEEESLKTELLKEQSETRKEKIQKQQDEYKGMTQGSLNSLSGESGELEEPIESNEIDLTIDSDLRPKSSLQGIAGSNSISYTDEIEEEDYDQYYLDEYDEEDEEEIRL
modifications: recombinant peptide from residues 21-205 of BBK32
On to B2, for which the “Annexin V assays (apoptosis)” value in the series with endothelial cells is listed as “negative”. Moreover, in [1], the “induction” value was “induced fibronectin aggregation”. In addition, in [1] (Triton X-100 added, not shown), the “fibronectin aggregation on addition of detergent Triton X-100” value is listed as “inhibited fibronectin aggregation”. In addition, in series [2], the “potency at inhibiting endothelial cell proliferation relative to Anastellin” value is reported as “reproducibly more potent at inhibiting endothelial cell proliferation than Anastellin” and the “effect on proliferation” value is “inhibited the proliferation of endothelial cells in a concentration dependent manner”. For the same molecule, in [3], the “co-localization with fibronectin” value is on record as “co-localize with fibronectin” and the “immunostaining” value is reported as “reduction of immunostaining with IST 9”. Also, the “relative binding to fibronectin thermolysin fragments” value in [6] is reported as “binds more strongly to the 56 kDa fragment than to the 45 kDa gelatin binding fragment”. Besides, the “thermolysin fragment profile of induced fibronectin aggregates” value in the series on plasma fibronectin is recorded as “very similar fragment profiles”.
